Assay results as given in article PMC9926122.

Target: T1, recombinant EB1 (HS-AFM and microtubule experiments) (human), Q15691
T1 chain: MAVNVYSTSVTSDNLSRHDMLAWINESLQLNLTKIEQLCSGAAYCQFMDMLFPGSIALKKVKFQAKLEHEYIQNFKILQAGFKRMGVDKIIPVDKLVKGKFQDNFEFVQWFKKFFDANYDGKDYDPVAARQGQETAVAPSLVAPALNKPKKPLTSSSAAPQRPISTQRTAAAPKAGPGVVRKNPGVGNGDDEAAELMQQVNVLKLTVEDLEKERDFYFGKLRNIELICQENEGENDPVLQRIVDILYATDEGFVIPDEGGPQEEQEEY
Test: high-speed atomic force microscopy (HS-AFM); proteins (10-30 nM; 10 nM in the frames shown) in BRB80 buffer (80 mM Pipes, 1 mM EGTA, 1 mM MgCl2, pH 6.9) on mica, tapping mode, 150 ms per frame; EB1 alone, Ska1 alone and their mixture
Conditions: remark: other sources report otherwise

stoichiometry N: 2
B1: recombinant EB1 (HS-AFM and microtubule experiments), Q15691 1-268 (natural protein)
chain: T1 chain
